Experimental data reported in patent US20150284436A1 (published 2015).
Changes are numbered by the printed parent chain. Numbers in names are those of the source. Values belong to the binder of their own block, whether it stands above or below them.

Experiments:
[1] = biological target: T1, TRX(C73A), tag-free, co-expressed in complex (human, UniProt P10599 1-105); assay: purified co-expressed complex, gel filtration before and after ROS treatment
T1 construct: Used in complex with T-TXNIP(C36S/C49S/C120S/C170S/C205S/C267S) to avoid TRX dimerization
T1 chain: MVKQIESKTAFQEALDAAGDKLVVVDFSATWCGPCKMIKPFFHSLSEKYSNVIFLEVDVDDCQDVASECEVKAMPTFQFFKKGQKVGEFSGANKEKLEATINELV
Procedure: In detail, the TRX-T-TXNIP(C120S/C170S/C205S/C267S) complex was incubated with H₂O₂ at 37° C. for 30 minutes (a). The TRX(C73A)-T-TXNIP(C36S/C49S/C120S/C170S/C205S/C267S) complex was incubated with diamide at 37° C. for 30 minutes. The reaction products were injected onto a HiLoad™ 16/60 Superdex™ 75 gel filtration column at room temperature (b). The TRX Cys35 residue is essential for dissociation between TRX and TXNIP. The TRX(C35A)-T-TXNIP(C120S/C170S/C205S/C267S) complex was incubated with diamide at 37° C. for 60 minutes and the reaction products were injected onto the Superdex™ 75 10/300 GL gel filtration column (c). Eluted T-TXNIP and TRX after the ROS treatments are indicated for each reaction. All eluted proteins were analyzed by SDS-PAGE;
The TRX and T-TXNIP(C120S/C170S/C205S/C267S) complex was used to circumvent non-functional cysteine-induced aggregation. The complex (at a concentration of 0.05 mM) was incubated with H₂O₂ at concentrations in the range of 0 to 10 mM in 50 mM Tris-HCl (pH 8.0), 500 mM NaCl, and 10% glycerol at 37° C. The TRX([…]) and T-TXNIP(C36S/C49S/C120S/C170S/C205S/C267S) complex was also used to avoid TRX dimerization and non-functional cysteine-induced aggregation. This complex was incubated with 0 to 3 mM diamide in 50 mM Tris-HCl (pH 8.0), 500 mM NaCl, and 10% glycerol at 37° C. […]

[2] = biological target: the molecule itself; assay: non-reducing SDS-PAGE after air oxidation
Procedure: TRX(C73)-T-TXNIP(C36S/C49S/C120S/C170S/C205S/C267S) complex was incubated with 100 mM DTT and subjected to size exclusion chromatography to isolate T-TXNIP(C36S/C49S/C120S/C170S/C205S/C267S) from remained protein complex and TRX. The fractions containing T-TXNIP(C36S/C49S/C120S/C170S/C205S/C267S) were collected and dialyzed against 50 mM Tris-HCl (pH 8.0), 500 mM NaCl and 10% glycerol to induce the formation of disulfide bonds between TXNIP molecules;
For analysis by mass spectrometry in vitro, purified TRX(C73A)-T-TXNIP(C36S/C49S/C120S/C170S/C205S/C267S) complex was incubated with 100 mM DTT for 1 hour at room temperature and injected to the Superdex™ 200 10/300 GL gel filtration column installed on an AKTA purifier FPLC system to obtain T-TXNIP(C36S/C49S/C120S/C170S/C205S/C267S) from remained protein complex and TRX(C73 Å). The fractions containing T-TXNIP(C36S/C49S/C120S/C170S/C205S/C267S) were dialyzed against 50 mM Tris-HCl (pH 8.0), 500 mM NaCl and 10% glycerol to induce the formation of disulfide bonds between TXNIP molecules through air oxidation. Dialyzed proteins were then subjected to SDS-PAGE under non-reducing conditions.

[3] = biological target: T2, N-TXNIP (N-terminal domain of TXNIP, residues 3-156) (human, UniProt Q9H3M7 3-156); assay: 1H-15N HSQC NMR
T2 construct: The NMR sample was 15N-labeled and its hexahistidine-tag was removed by rTEV; In the Ni-NTA co-purification it carried the N-terminal hexahistidine-tag; also called N-terminal TXNIP; ^15N-labeled N-TXNIP
T2 chain: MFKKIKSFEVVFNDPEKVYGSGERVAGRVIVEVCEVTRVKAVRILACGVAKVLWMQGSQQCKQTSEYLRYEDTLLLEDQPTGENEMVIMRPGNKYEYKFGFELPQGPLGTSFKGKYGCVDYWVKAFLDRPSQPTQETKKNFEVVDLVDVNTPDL
Procedure: NMR interaction experiments were carried out by recording ¹H-¹⁵N NMR HSQC spectra of ¹⁵N-labeled N-TXNIP upon addition of unlabeled TRX or its mutant, which was reduced with 5 mM DTT and dialyzed against 50 mM potassium phosphate (pH 6.6) prior to the interaction study to remove excess DTT.
The ¹H-¹⁵N HSQC spectra of all proteins were measured on a Bruker 900 MHz NMR spectrometer at the Korea Basic Science Institute (Ochang, Korea). The NMR measurements were performed using 0.3 mM ¹⁵N-labeled protein in 50 mM potassium phosphate (pH 6.6) containing 10% D₂O at 25° C. All NMR spectra were processed with Topspin 2.1 and analyzed with the program SPARKY 3.1.
Further, TRX muteins were added and ¹H-¹⁵N HSQC spectra of ¹⁵N-labeled N-TXNIP were monitored to examine interaction between N-TXNIP and TRX. […] In contrast, C62A, C69A, and C73A mutants caused a chemical shift similar to the wild-type TRX (FIG. 12).

[4] = biological target: T3, FLAG-tagged TXNIP with Cys63 substituted with serine (human, UniProt Q9H3M7 1-391); assay: GST pull-down / co-IP from 293T lysates, Western blot
T3 chain: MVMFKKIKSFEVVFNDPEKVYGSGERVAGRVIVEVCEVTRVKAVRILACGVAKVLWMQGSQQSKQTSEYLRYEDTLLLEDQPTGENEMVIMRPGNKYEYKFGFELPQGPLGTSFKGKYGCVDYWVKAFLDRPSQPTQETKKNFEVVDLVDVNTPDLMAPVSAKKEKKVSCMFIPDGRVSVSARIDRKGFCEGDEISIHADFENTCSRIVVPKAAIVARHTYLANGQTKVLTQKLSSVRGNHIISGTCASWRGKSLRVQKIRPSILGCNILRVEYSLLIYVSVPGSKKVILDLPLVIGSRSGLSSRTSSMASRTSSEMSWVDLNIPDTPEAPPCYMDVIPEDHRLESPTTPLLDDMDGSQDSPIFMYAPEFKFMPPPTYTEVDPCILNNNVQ
Procedure: (§1) Coimmunoprecipitation assays were performed using lysates from 293T cells transfected with combinations of FLAG-tagged or HA-tagged TXNIP plasmids and GST-tagged or FLAG-tagged TXNIP plasmids. Immobilized proteins on FLAG-agarose beads or glutathione beads were visualized by Western blot analysis using anti-HA, anti-FLAG, or anti-GST antibodies. One percent of WCL was used as the input;
(§2) To test the in vivo interprotomer interaction between TXNIP molecules, HEK 293T cells were transfected with plasmids expressing HA-tagged-TXNIP and FLAG-tagged T-TXNIP. 24 hours later, the cells were harvested and lysed in the 50 mM iodoacetamide-containing buffer [0.5% Triton X-100, 150 mM NaCl, 10% glycerol, 1 mM NaF, 1 mM AEBSF, 2 μg/mL leupeptin, 5 μg/mL aprotinin and 20 mM HEPES (pH 7.2)]. After centrifugation at 16,000 rpm for 20 minutes, the supernatant was incubated with anti-FLAG M2 agarose (Sigma) at 4° C. for 12 hours. The immobilized proteins were collected by centrifugation and washed three times with the lysis buffer. The bound proteins were subjected to SDS-PAGE under reduced and non-reduced conditions. […] 24 hours later, the cells were harvested and lysed in the lysis buffer. […]

[5] = biological target: T4, FLAG-tagged TXNIP with Cys247 substituted with serine (human, UniProt Q9H3M7 1-391); assay: as above
T4 chain: T3 chain with S63C, C247S
Procedure: as §1, §2

- binding result [4]: no binding
B3: GST-fused TXNIP with Cys63 substituted with serine (other)
chain: T3 chain

- binding result [5]: no binding
B4: GST-fused TXNIP with Cys247 substituted with serine (other)
chain: T3 chain with S63C, C247S

The remaining lines, values behind:

B1: T-TXNIP(C36S/C49S/C120S/C170S/C205S/C267S) (other)
chain: MFKKIKSFEVVFNDPEKVYGSGERVAGRVIVEVSEVTRVKAVRILASGVAKVLWMQGSQQCKQTSEYLRYEDTLLLEDQPTGENEMVIMRPGNKYEYKFGFELPQGPLGTSFKGKYGSVDYWVKAFLDRPSQPTQETKKNFEVVDLVDVNTPDLMAPVSAKKEKKVSSMFIPDGRVSVSARIDRKGFCEGDEISIHADFENTSSRIVVPKAAIVARHTYLANGQTKVLTQKLSSVRGNHIISGTCASWRGKSLRVQKIRPSILGSNILRVEYSLLIYVSVPGSKKVILDLPLVIGSRSGLSSRTSSMASRTSSEM
notes: 1 residues 3-317 (T-TXNIP) with the six printed substitutions; also called monomeric T-TXNIP mutant
- binding result [1]: binds
- binding result [2]: binds

B2: TRX C32A mutant (NMR sample) (enzyme)
chain: T1 chain with C32A, A73C
notes: not shown: C-terminal hexahistidine-tag from pET21 vector
- binding result [3]: no binding
